What all share (conditions): both partners purified
Experiment [1] deals with T1, biotinylated FZD1 cysteine-rich domain (CRD) (Homo sapiens, UniProt Q9UP38, biotin (in vivo biotinylation of the Avi tag)).
T1 construct: human Frizzled-1 (FZD1) cysteine-rich domain; One of 'all 10 human Frizzled CRDs'; also called FZD1 CRD; source: HEK293T constitutively expressing ER-localised biotin ligase, transfected, biotinylated in vivo; not shown: Avi3, C-terminal, kept
As to the kind of experiment: BLI; BLItz System; initial qualitative test of the 10 biotinylated human FZD CRDs binding to Nb8. For orientation: BLI is a label-free optical method that tracks binding on a fibre tip over time.

The target in experiment [2] is T2, biotinylated FZD2 cysteine-rich domain (CRD) (Homo sapiens, UniProt Q14332, biotin (in vivo biotinylation of the Avi tag)).
T2 construct: human Frizzled-2 (FZD2) cysteine-rich domain; One of 'all 10 human Frizzled CRDs'; also called FZD2 CRD; source: HEK293T constitutively expressing ER-localised biotin ligase, transfected, biotinylated in vivo; not shown: Avi3, C-terminal, kept
T2 sequence (Q14332 whole entry, looked up, the tested form may be a part): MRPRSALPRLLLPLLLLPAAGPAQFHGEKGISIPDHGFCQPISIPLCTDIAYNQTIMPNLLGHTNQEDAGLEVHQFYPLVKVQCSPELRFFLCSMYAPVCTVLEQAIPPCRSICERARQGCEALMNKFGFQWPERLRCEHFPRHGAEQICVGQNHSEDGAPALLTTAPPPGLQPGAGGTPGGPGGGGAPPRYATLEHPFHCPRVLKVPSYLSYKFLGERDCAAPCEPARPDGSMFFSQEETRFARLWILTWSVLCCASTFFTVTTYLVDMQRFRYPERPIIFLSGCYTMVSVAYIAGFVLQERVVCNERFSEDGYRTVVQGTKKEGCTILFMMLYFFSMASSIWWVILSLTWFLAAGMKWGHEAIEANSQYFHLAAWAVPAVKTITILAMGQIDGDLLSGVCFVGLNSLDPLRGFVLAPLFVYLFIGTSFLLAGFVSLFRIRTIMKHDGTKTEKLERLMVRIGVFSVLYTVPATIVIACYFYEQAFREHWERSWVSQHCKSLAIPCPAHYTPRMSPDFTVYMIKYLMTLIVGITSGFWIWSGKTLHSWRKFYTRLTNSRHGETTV
The experiment is described as above.

In experiment [3] the target is T3, biotinylated FZD4 cysteine-rich domain (CRD) (Homo sapiens, UniProt Q9ULV1, biotin (in vivo biotinylation of the Avi tag)).
T3 construct: human Frizzled-4 (FZD4) cysteine-rich domain; One of 'all 10 human Frizzled CRDs'; also called FZD4 CRD; source: HEK293T constitutively expressing ER-localised biotin ligase, transfected, biotinylated in vivo; not shown: Avi3, C-terminal, kept
T3 sequence (Q9ULV1 whole entry, looked up, the tested form may be a part): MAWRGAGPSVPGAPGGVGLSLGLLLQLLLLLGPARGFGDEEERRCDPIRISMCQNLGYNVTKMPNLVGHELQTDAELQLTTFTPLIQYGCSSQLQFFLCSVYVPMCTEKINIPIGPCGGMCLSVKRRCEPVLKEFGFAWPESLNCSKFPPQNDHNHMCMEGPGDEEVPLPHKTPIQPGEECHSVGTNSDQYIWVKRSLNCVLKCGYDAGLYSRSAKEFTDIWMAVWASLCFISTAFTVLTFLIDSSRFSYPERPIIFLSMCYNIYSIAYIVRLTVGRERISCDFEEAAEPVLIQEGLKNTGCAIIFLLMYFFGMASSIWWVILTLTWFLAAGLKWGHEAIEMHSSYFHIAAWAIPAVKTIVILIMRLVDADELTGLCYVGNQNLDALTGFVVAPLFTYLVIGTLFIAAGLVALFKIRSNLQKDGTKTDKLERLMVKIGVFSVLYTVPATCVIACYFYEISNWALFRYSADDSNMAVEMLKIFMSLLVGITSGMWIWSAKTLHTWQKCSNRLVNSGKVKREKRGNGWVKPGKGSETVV
Described as above.

Experiment [4] concerns the target T4, biotinylated FZD5 cysteine-rich domain (CRD) (Homo sapiens, UniProt Q13467, biotin (in vivo biotinylation of the Avi tag)).
T4 construct: human Frizzled-5 (FZD5) cysteine-rich domain; One of 'all 10 human Frizzled CRDs'; also called FZD5 CRD; source: HEK293T constitutively expressing ER-localised biotin ligase, transfected, biotinylated in vivo; not shown: Avi3, C-terminal, kept
Described as above.

Experiment [5] addresses T5, biotinylated FZD7 cysteine-rich domain (CRD) (Homo sapiens, UniProt O75084, biotin (in vivo biotinylation of the Avi tag)).
T5 construct: human Frizzled-7 (FZD7) cysteine-rich domain; One of 'all 10 human Frizzled CRDs'; also called FZD7 CRD; source: HEK293T constitutively expressing ER-localised biotin ligase, transfected, biotinylated in vivo; not shown: Avi3, C-terminal, kept
Described as above.

Experiment [6] concerns the target T6, biotinylated FZD8 cysteine-rich domain (CRD) (Homo sapiens, UniProt Q9H461, biotin (in vivo biotinylation of the Avi tag)).
T6 construct: human Frizzled-8 (FZD8) cysteine-rich domain; One of 'all 10 human Frizzled CRDs'; also called FZD8 CRD; source: HEK293T constitutively expressing ER-localised biotin ligase, transfected, biotinylated in vivo; not shown: Avi3, C-terminal, kept
Described as above.

Experiment [7] has as its target T7, biotinylated FZD9 cysteine-rich domain (CRD) (Homo sapiens, UniProt O00144, biotin (in vivo biotinylation of the Avi tag)).
T7 construct: human Frizzled-9 (FZD9) cysteine-rich domain; One of 'all 10 human Frizzled CRDs'; also called FZD9 CRD; source: HEK293T constitutively expressing ER-localised biotin ligase, transfected, biotinylated in vivo; not shown: Avi3, C-terminal, kept
Described as above.

Experiment [8] concerns the target T8, biotinylated FZD10 cysteine-rich domain (CRD) (Homo sapiens, UniProt Q9ULW2, biotin (in vivo biotinylation of the Avi tag)).
T8 construct: human Frizzled-10 (FZD10) cysteine-rich domain; One of 'all 10 human Frizzled CRDs'; also called FZD10 CRD; source: HEK293T constitutively expressing ER-localised biotin ligase, transfected, biotinylated in vivo; not shown: Avi3, C-terminal, kept
The description is as above.

In experiment [9] the target is T9, biotinylated FZD3 cysteine-rich domain (CRD) (human, UniProt Q9NPG1, biotin (in vivo biotinylation of the Avi tag)).
T9 construct: human Frizzled-3 (FZD3), UniProt Q9NPG1, cysteine-rich domain; residues 26-138 are stated for the FZD3 CRD production construct, not expressly for the Avi-tagged one; The limits 26-138 are told for the Twin-Strep construct; also called FZD3 CRD; Frizzled3 CRD; source: HEK293T constitutively expressing ER-localised biotin ligase, transfected, biotinylated in vivo; not shown: Avi3, C-terminal, kept
The experiment in a line: BLI; Octet Red 96e; biotinylated FZD3 or FZD6 CRD immobilised, Nb8 or Wnt5a in solution; 10 mM HEPES pH 7.5, 150 mM NaCl, 0.02% Tween 20, 0.005% GDN; 1:1 binding model.

The target in experiment [10] is T10, biotinylated multidomain FZD3 (C-terminally truncated, in detergent) (human, UniProt Q9NPG1, biotin (in vivo biotinylation of the Avi tag)).
T10 construct: human Frizzled-3 (FZD3), UniProt Q9NPG1; C-terminally truncated construct (CRD, linker and transmembrane domain); residues 26-517 are stated for the multidomain production construct, not expressly for the Avi-tagged one; The results call it 'full-length FZD3'; the methods say the biotinylated transmembrane constructs were C-terminally truncated; Functional assays in cells used wild type FZD3 …
As to the kind of experiment: BLI; Octet Red 96e; biotinylated multidomain FZD3 or FZD6 in detergent immobilised, nanobody or DEP in solution; 10 mM HEPES pH 7.5, 150 mM NaCl, 0.02% Tween 20, 0.005% GDN; 1:1 binding model.

Experiment [11] deals with T11, biotinylated FZD6 (C-terminally truncated transmembrane construct, in detergent) (Homo sapiens, UniProt O60353, biotin (in vivo biotinylation of the Avi tag)).
T11 construct: Frizzled-6 (FZD6), C-terminally truncated transmembrane construct; the methods say C-terminal truncated, without limits; also called full length FZD6; source: HEK293T with biotin ligase, transfected, biotinylated in vivo, in detergent; not shown: Avi3, C-terminal, kept
T11 sequence (O60353 19-706): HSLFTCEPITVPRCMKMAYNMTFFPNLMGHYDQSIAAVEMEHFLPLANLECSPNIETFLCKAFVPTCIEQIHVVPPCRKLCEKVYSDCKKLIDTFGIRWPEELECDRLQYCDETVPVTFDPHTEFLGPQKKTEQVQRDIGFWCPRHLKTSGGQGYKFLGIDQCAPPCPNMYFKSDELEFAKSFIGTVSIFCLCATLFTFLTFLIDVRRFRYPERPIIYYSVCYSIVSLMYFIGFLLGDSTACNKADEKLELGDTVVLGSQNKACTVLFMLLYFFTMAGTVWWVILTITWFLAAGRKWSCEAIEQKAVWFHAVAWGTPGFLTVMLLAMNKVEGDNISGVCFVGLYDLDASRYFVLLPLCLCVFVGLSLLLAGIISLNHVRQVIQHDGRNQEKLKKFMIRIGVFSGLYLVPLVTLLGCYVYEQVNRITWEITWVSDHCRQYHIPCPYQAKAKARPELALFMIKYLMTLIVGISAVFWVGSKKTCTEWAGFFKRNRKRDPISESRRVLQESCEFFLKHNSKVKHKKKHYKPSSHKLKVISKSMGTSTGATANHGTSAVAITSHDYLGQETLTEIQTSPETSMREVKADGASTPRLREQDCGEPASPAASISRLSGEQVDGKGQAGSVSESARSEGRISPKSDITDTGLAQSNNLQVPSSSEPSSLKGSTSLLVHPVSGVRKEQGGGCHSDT
Described as above.

Our source for the binding result and Kd values is article PMC11341715, “Structural insights into Frizzled3 through nanobody modulators” (Nature Communications, 2024).

For orientation: Kd means the constant that tells how readily two partners part at equilibrium. A low value points to higher affinity.

T7 sequence (O00144 whole entry, looked up, the tested form may be a part): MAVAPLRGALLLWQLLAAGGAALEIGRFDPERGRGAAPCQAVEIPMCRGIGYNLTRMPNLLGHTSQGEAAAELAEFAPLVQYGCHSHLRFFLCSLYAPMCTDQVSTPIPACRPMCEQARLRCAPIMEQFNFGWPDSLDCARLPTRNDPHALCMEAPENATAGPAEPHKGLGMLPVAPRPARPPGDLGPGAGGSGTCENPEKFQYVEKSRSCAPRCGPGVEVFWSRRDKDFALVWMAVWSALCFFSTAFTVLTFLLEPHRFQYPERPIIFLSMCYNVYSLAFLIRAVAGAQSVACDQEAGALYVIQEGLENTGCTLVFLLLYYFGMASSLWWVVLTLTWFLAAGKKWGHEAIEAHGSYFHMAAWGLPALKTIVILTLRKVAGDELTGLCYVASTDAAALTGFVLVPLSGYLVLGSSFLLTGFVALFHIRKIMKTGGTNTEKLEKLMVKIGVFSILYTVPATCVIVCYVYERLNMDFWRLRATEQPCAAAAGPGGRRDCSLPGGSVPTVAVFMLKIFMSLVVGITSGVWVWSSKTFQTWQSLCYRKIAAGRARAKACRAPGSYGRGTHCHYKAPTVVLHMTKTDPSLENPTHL
T8 sequence (Q9ULW2 whole entry, looked up, the tested form may be a part): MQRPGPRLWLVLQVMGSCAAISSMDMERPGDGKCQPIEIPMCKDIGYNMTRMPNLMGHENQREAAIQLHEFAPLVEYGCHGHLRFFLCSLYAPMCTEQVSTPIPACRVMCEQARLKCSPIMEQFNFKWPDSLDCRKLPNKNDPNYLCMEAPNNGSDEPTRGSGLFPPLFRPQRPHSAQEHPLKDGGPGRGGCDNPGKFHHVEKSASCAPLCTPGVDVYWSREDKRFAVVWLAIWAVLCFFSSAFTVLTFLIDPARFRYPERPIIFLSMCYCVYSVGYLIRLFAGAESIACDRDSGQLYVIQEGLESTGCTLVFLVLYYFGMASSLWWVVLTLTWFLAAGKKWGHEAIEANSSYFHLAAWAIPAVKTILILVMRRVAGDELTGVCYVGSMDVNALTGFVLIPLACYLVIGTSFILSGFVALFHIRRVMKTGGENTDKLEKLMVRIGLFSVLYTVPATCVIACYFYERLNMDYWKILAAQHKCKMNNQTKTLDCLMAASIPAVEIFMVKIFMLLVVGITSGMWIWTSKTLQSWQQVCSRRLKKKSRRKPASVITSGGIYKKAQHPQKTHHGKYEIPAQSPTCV
T4 sequence (Q13467 whole entry, looked up, the tested form may be a part): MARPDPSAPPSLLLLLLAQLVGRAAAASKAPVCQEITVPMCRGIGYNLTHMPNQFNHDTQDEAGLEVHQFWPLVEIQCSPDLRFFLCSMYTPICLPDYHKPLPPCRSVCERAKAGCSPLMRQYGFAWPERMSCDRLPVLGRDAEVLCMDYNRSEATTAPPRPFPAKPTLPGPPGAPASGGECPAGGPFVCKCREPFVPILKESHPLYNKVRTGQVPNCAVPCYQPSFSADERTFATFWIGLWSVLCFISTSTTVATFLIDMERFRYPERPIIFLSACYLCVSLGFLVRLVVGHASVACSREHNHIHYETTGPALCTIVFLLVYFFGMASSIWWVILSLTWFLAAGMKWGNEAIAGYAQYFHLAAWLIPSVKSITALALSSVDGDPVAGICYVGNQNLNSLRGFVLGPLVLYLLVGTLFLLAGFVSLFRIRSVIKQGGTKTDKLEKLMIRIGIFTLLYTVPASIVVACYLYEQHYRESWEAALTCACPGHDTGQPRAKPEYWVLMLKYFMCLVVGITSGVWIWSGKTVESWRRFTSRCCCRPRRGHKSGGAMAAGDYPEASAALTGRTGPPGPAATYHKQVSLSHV
T1 sequence (Q9UP38 whole entry, looked up, the tested form may be a part): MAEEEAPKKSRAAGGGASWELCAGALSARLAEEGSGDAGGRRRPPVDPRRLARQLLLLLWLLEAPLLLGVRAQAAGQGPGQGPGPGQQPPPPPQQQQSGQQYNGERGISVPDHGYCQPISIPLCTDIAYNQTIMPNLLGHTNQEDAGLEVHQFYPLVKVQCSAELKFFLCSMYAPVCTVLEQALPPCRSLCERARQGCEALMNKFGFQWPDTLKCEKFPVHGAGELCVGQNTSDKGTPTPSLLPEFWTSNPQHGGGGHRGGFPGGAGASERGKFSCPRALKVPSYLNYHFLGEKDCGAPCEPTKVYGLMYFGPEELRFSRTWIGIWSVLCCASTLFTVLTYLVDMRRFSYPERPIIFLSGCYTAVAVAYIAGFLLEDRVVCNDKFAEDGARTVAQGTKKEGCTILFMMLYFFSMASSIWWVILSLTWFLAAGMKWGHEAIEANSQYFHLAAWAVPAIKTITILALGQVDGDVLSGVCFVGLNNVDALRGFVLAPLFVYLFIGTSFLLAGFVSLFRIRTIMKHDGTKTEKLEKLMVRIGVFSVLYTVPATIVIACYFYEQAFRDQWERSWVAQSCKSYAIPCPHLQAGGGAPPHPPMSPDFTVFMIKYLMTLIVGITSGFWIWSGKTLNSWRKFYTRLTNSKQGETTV
T6 sequence (Q9H461 whole entry, looked up, the tested form may be a part): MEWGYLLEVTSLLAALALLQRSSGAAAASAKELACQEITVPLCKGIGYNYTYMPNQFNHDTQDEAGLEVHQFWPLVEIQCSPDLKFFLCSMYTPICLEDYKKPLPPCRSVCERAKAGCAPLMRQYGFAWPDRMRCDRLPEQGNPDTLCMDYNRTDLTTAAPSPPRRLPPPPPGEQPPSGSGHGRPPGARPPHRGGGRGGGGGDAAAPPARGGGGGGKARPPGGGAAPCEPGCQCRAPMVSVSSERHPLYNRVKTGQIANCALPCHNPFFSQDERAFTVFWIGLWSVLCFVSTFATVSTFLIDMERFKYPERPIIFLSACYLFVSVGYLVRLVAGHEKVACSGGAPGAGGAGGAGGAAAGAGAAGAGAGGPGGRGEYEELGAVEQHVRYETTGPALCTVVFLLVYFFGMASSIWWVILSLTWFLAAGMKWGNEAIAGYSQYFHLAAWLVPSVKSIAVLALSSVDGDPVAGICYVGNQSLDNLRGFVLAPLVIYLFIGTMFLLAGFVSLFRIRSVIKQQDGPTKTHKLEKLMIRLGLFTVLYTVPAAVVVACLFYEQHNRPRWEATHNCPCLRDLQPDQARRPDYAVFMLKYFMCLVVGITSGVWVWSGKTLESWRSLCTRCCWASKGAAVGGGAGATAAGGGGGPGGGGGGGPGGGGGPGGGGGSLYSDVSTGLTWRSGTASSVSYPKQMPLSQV

B1: Nb8 (VHH)
VHH: QVQLVESGGGLVQAGGSLRLSCAASGSISSINAMGWYRQAPGKQRELVAAITSGGSTNYADSVKGRFTISRDNAKNTVYLQMNSLKPGDTAVYYCNLLYYIDYVEYDYWGQGTQVTVSS
notes: also in PDB 8Q7O; residues 1-119 are named for the Nb8 module of the surrogate; Untagged in the crystallisation sample; also called nanobody 8; family 2; source: co-expressed untagged with FZD3 CRD in HEK293S GnTI- cells (for crystallisation)
Take B1: the binding result in experiment [1], in experiment [2], in experiment [3], in experiment [4], in experiment [5] and in experiment [6] was “no binding” in each case. Besides, the binding result in [7] and in [8] was “no binding” each time. This molecule also displayed a Kd in experiment [9] of 19.2 ± 1.2 nM.

B2: Nb9 (VHH)
VHH: QVQLVESGGGLVQAGGSLRLSCTASGRIFNLDVMGWYRQAPGKRRELVADITSGGKINYADSVKGRFTISRDNTKDTVYLQMNSLKPEDTAVYYCNAEVEWLDMDYWGKGTQVTVSS
notes: most of the chain also in PDB 8QW4 (as the megabody); also called nanobody 9; family 3
As to B2, the equilibrium dissociation constant (Kd) came out at 32 ± 2.8 nM in experiment [10] and 410 ± 41 nM in experiment [11].

B3: Nb1 (VHH)
VHH: QVQLVESGGGLVQAGGSLRLSCAASGNIFSINAMGWYRQAAGKQRELVAAITSGGSTNYADSVKGRFTISRDNAKNTVYLQMNSLKPEDTAVYYCNADEWALGEHWGQGTQVTVSS
notes: also called nanobody 1; family 1 (Nb1, 3-6)
For the molecule B3, in experiment [10], the binding result is reported as “binds”.
